# Results published in paper PMC6648591 (ACS Omega, 2019).
# Non-standard residues stand in square brackets, D forms with d. No end group written: not given here. pGlu = O=C1CC[C@@H](C(=O)O)N1
# T1: mature Rhizomucor miehei lipase (Rhizomucor miehei, UniProt P19515 95-363)
# T1 sequence (looked up): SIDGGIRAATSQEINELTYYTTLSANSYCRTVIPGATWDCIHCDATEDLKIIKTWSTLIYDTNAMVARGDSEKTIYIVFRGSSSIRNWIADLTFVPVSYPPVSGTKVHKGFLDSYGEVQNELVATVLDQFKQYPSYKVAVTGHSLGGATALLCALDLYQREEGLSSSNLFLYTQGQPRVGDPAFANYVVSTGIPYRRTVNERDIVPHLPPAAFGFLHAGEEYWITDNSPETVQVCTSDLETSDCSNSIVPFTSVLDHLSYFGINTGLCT
# T2: mature RmL (Rhizomucor miehei lipase) (Rhizomucor miehei, UniProt P19515)
# T2 construct: mature RmL; 95–363; 29,537.7; 29,538.2; made in house; host or cells: Aspergillus oryzae
# T2 sequence (P19515 whole entry, looked up): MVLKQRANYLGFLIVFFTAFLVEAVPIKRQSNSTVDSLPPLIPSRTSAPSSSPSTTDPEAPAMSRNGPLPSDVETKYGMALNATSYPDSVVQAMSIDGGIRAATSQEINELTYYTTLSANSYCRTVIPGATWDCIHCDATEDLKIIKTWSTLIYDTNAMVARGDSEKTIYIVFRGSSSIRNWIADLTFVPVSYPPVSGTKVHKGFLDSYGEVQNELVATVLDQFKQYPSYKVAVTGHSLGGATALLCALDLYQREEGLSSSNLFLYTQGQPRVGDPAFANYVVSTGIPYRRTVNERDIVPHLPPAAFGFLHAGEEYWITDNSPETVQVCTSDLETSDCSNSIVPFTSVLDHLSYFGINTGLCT
# Tests used:
# [1] = biological target: T1, mature Rhizomucor miehei lipase; test: crystal structure; wild-type ProRmL sample, 10 mg/mL; 30% PEG8K, 0.1 M Na-cacodylate pH 6.5, 0.2 M ammonium sulfate; 293 K; molecular replacement with 3TGL; details: both partners purified
# Rhizomucor miehei lipase = details: activity-related mutation in propeptide; cited from earlier work
# Excerpt: The buried surface area between the propeptide and the mature enzyme is ∼1771.2 Å^2 (analyzed using PISA,[23] corresponding to a strong protein–protein interaction).[24] The most significant interactions between the propeptide and mature enzyme from the PISA analysis are given in Table S1 (Supporting Information). One of these interactions involves Leu81, which is one of the activity-related mutations identified in ref ([17]) and is a part of the hydrophobic cluster at the ...
# [2] = Zymogram of native PAGE (lipase activity on olive oil plate); type: biochemical; details: native PAGE gel placed on agarose plate: 50 mM HEPES (pH 7), 0.625% polyvinyl alcohol, 1.9% (v/v) olive oil, 0.05% brilliant green; Figure 8C
# Excerpt: The compositions for native PAGE were as follows. Resolving gel: 12% acrylamide-bis-acrylamide; 0.4 M Tris (pH 8.8), 0.1% APS, 0.04% TEMED. Stacking gel: 5.1% acrylamide-bis-acrylamide; 0.25 M Tris (pH 6.8), 0.1% APS, 0.1% TEMED. Loading dye: 0.06 M Tris (pH 6.8), 0.01% bromophenol blue, 10% glycerol. Running buffer: 3 g/L Tris base, 14.4 g/L glycine. Gel (B) is stained with brilliant blue. Zymogram: After electrophoresis, the native PAGE was placed on an agarose/brilliant blue plate (4% Litex HSB agarose protein grade, 50 mM HEPES (pH 7), 0.625% polyvinyl alcohol, 1.9% (v/v) olive oil, and 0.05% brilliant green (Sigma)).
# [3] = biological target: T1, mature Rhizomucor miehei lipase; test: fluorescence polarisation; 0.9 uM A488-labelled peptide mixed with mature RmL at 0.0002-10 uM, in duplicate; 50 mM HEPES pH 7.5, 100 mM NaCl, 1 mM CaCl2; 30 min at room temperature; Langmuir 1:1 fit; details: both partners purified
# [4] = biological target: T2, mature RmL (Rhizomucor miehei lipase); test: GLAD lipase assay: inhibition of mature RmL by propeptide; type: biochemical; details: isolated propeptide; RmL–propeptide molar ratio 1:64, 15 min incubation, 0.2 M HEPES, 1 mM CaCl2, 10 ppm Triton X-100, pH 8.5; substrate olive oil/4-methylumbelliferyl oleate on cellulose, detergent model B; room temperature; fluorescence 365/445 nm; Figure 4a
# Experimental: Inhibition of hydrolytic activity was determined by using the industrially relevant GLAD assay, measuring the release of 4-methylumbelliferone (4-MU) by purified mature RmL incubated with and without a propeptide (RmL–propeptide incubated at a molar ratio of 1:64) for 15 min in 0.2 M HEPES, 1 mM CaCl2, and 10 ppm Triton X-100 (adjusted to pH 8.5). As a substrate, we used cellulose cotton linters, Avicel PH-101 (Sigma-Aldrich, 11365), uniformly coated with a 4.5:1 mixture of olive oil (Sigma-Aldrich, O-1514) and 4-methylumbelliferyl oleate (oleic acid 4-methylumbelliferyl ester (Sigma-Aldrich, 75164): 4 mg/mL in n-hexane (Sigma-Aldrich, 15671)). The coated cellulose fibers were suspended in 0.2 M HEPES, 3 mM CaCl2, 0.5 mM MgCl2, and 10 ppm Triton X-100 mixed with 3.3 g/L detergent solution using detergent model B (model B composition: 1% (w/w) NaOH, 7.2% (w/w) LAS, 3% (w/w) SLES, 5.5% (w/w) soy and coco fatty acids, 6.6% (w/w) AEO, 3.33% (w/w) triethanol amine, 2% (w/w) Na-citrate, 0.5% (w/w) DTMPA, 6% (w/w) MPG, 3% EtOH, 1.7% (w/w) glycerol, 1% (w/w) sodium formate, 0.1% (w/w) PCA; adjusted to pH 8.5) and RmL −/+ propeptide. The enzyme activity at room temperature was followed by measuring the fluorescence (kinetic mode) every 30 s at an excitation wavelength of 365 nm and emission wavelength of 445 nm from 1 to 6 min. […]
molecule,measurement,setting,value
"Rhizomucor miehei lipase propeptide (cleaved propeptide) (domain or fragment, UniProt P19515 30-94, looked up, also: N-glycosylation (GlcNAc after EndoH), site not given here, hexose at O-glycosylation site, site not given here) [pGlu]SNSTVDSLPPLIPSRTSAPSSSPSTTDPEAPAMSRNGPLPSDVETKYGMALNATSYPDSVVQAM",binding result,[1],binds
"L81V: activity-related propeptide mutation L81V of R. miehei lipase identified in ref 17 (protein, UniProt P19515 25-363, looked up, variant L81V, pro-form) pro-form: VPIKRQSNSTVDSLPPLIPSRTSAPSSSPSTTDPEAPAMSRNGPLPSDVETKYGMAVNATSYPDSVVQAMSIDGGIRAATSQEINELTYYTTLSANSYCRTVIPGATWDCIHCDATEDLKIIKTWSTLIYDTNAMVARGDSEKTIYIVFRGSSSIRNWIADLTFVPVSYPPVSGTKVHKGFLDSYGEVQNELVATVLDQFKQYPSYKVAVTGHSLGGATALLCALDLYQREEGLSSSNLFLYTQGQPRVGDPAFANYVVSTGIPYRRTVNERDIVPHLPPAAFGFLHAGEEYWITDNSPETVQVCTSDLETSDCSNSIVPFTSVLDHLSYFGINTGLCT",activity of the mutant,Rhizomucor miehei lipase,increased activity
"mature RmL: the mature wild-type enzyme without propeptide, residues 95–363 (protein) SIDGGIRAATSQEINELTYYTTLSANSYCRTVIPGATWDCIHCDATEDLKIIKTWSTLIYDTNAMVARGDSEKTIYIVFRGSSSIRNWIADLTFVPVSYPPVSGTKVHKGFLDSYGEVQNELVATVLDQFKQYPSYKVAVTGHSLGGATALLCALDLYQREEGLSSSNLFLYTQGQPRVGDPAFANYVVSTGIPYRRTVNERDIVPHLPPAAFGFLHAGEEYWITDNSPETVQVCTSDLETSDCSNSIVPFTSVLDHLSYFGINTGLCT",lipase activity in zymogram at the band corresponding to mature RmL,[2],much stronger in mature RmL than in wild-type ProRmL
SDVETKYGMALNATSYC(A488) [propeptide fragment SDVETKYGMALNATSYC-A488],Kd,[3],200 nM
"propeptide: Cleaved propeptide, separated from the mature enzyme, residues 30–94 (protein, also: N-glycosylation (GlcNAc after EndoH), site not given here, hexose at O-glycosylation site, site not given here) [pGlu]SNSTVDSLPPLIPSRTSAPSSSPSTTDPEAPAMSRNGPLPSDVETKYGMALNATSYPDSVVQAM",inhibition of lipase activity,[4],clear inhibition of activity
